The assay concerns the target SET-26::GFP, excessively sumoylated (from F2 ulp-2(tv380) or ulp-2(RNAi) animals) (C. elegans) (UniProt Q9U263). Kind of assay: co-IP; anti-GFP immunoprecipitation of SET-26::GFP from whole-worm lysates (1% PFA, sonicated), blot with anti-H3K4me3; WT and F2 ulp-2(tv380) backgrounds; 3 biological replicates.

This is an account of results in publication PMC11703099.

Chain of UniProt Q9U263 (Q9U263 whole entry): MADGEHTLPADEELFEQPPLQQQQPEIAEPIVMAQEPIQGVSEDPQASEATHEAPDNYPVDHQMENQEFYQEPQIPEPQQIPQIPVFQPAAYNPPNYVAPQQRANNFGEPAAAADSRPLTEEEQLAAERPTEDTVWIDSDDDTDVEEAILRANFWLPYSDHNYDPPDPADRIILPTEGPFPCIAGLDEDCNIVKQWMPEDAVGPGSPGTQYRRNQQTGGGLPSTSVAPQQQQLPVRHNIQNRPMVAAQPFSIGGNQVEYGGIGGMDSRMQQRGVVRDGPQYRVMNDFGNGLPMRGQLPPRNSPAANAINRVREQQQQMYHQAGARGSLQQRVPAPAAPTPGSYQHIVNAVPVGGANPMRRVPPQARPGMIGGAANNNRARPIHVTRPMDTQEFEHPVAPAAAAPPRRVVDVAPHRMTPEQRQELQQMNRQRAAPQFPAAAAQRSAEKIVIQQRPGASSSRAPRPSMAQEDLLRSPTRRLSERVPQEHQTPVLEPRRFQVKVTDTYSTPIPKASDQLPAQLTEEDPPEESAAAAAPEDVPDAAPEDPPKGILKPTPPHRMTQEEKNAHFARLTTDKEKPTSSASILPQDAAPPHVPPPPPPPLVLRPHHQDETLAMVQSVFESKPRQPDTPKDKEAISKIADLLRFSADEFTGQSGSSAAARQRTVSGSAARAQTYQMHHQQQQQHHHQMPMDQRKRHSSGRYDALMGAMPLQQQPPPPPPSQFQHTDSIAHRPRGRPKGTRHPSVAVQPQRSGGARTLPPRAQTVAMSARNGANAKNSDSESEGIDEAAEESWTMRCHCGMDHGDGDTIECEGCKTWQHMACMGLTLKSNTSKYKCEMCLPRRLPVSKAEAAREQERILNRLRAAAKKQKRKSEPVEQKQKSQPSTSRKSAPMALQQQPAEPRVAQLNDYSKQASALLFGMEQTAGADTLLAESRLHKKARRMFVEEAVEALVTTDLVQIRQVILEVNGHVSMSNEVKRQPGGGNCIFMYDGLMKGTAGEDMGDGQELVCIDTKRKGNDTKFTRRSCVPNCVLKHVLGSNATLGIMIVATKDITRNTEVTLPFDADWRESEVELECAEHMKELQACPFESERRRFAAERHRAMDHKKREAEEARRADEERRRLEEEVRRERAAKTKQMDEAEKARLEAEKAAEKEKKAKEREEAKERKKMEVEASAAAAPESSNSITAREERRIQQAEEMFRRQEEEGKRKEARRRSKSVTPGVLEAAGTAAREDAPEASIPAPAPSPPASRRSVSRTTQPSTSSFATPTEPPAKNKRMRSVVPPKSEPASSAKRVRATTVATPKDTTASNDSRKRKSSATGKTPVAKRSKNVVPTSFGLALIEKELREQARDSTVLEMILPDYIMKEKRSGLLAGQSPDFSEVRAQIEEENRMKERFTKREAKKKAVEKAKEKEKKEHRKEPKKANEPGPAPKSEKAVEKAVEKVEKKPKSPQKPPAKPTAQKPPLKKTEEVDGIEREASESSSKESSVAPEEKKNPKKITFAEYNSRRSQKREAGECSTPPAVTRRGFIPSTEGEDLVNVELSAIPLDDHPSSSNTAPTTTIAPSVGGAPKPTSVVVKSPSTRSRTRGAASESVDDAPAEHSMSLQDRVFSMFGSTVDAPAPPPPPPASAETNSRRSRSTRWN

As to “Histone H3 tri-methylated at lysine 4 (H3K4me3) (from UniProt P08898 1-136) (natural protein)”, the reduction of binding compared with WT was found to be 55%.
